Test results from the supplement of paper PMC10567573.

B1: MIA2 (parent)
chain: NSISSDKEATVPCTEILTEKKDTI
B2: FBF1 (parent)
chain: LQRASILDMRRDHEEQLQRLKLLK

Variants of: B1
Test: protein stability index of a GFP-peptide fusion (GPS, HEK-293T) (PSI 1-6); higher = more stable
Details: c terminus: a fixed tail appended
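Note: lentivirally expressed fusions sorted by FACS into six bins by GFP to DsRed ratio, PSI derived from sequencing read proportions per bin multiplied by bin number.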

In order of rising protein stability index:
1. NSISRDKEATVPCTEILTEKKDTI [S5R]  4.71
2. NSISSDWEATVPCTEILTEKKDTI [K7W]  5.05
3. NSISSDKEATVPCTEILTEKKDDI [T23D]  5.17
4. NSISWDKEATVPCTEILTEKKDTI [S5W]  5.17
5. NSISMDKEATVPCTEILTEKKDTI [S5M]  5.23
6. NSISSDKEATVPCTEILTEKKDMI [T23M]  5.33
7. NGISSDKEATVPCTEILTEKKDTI [S2G]  5.37
8. NSISSDHEATVPCTEILTEKKDTI [K7H]  5.38
9. NSISDDKEATVPCTEILTEKKDTI [S5D]  5.4
10. NSISSDKEATVPCTEILTEKKDSI [T23S]  5.47
11. NSISSDSEATVPCTEILTEKKDTI [K7S]  5.5
12. NSISSDKEATVPCTEILTEKKDGI [T23G]  5.5
13. NSISKDKEATVPCTEILTEKKDTI [S5K]  5.83

Variants of: B2
Test: as above
Details: c terminus: a fixed tail appended

In order of falling protein stability index:
1. DQRASILDMRRDHEEQLQRLKLLK [L1D]  4.73
2. EQRASILDMRRDHEEQLQRLKLLK [L1E]  4.42
3. LQGASILDMRRDHEEQLQRLKLLK [R3G]  4.21
4. LQDASILDMRRDHEEQLQRLKLLK [R3D]  4.17
5. LQEASILDMRRDHEEQLQRLKLLK [R3E]  4.12
6. IQRASILDMRRDHEEQLQRLKLLK [L1I]  4.12
7. LQRPSILDMRRDHEEQLQRLKLLK [A4P]  4.08
8. LQPASILDMRRDHEEQLQRLKLLK [R3P]  4.02
9. LQRESILDMRRDHEEQLQRLKLLK [A4E]  4.02
10. LPRASILDMRRDHEEQLQRLKLLK [Q2P]  3.95
11. LDRASILDMRRDHEEQLQRLKLLK [Q2D]  3.94
12. TQRASILDMRRDHEEQLQRLKLLK [L1T]  3.94
13. LQNASILDMRRDHEEQLQRLKLLK [R3N]  3.93
14. LQHASILDMRRDHEEQLQRLKLLK [R3H]  3.92
15. LQSASILDMRRDHEEQLQRLKLLK [R3S]  3.9
16. GQRASILDMRRDHEEQLQRLKLLK [L1G]  3.89
17. PQRASILDMRRDHEEQLQRLKLLK [L1P]  3.87
18. LQAASILDMRRDHEEQLQRLKLLK [R3A]  3.86
19. LNRASILDMRRDHEEQLQRLKLLK [Q2N]  3.85
20. LQRRSILDMRRDHEEQLQRLKLLK [A4R]  3.83
21. LQRNSILDMRRDHEEQLQRLKLLK [A4N]  3.83
22. LQRADILDMRRDHEEQLQRLKLLK [S5D]  3.81
23. AQRASILDMRRDHEEQLQRLKLLK [L1A]  3.81
24. LGRASILDMRRDHEEQLQRLKLLK [Q2G]  3.79
25. LQKASILDMRRDHEEQLQRLKLLK [R3K]  3.74
26. LQRHSILDMRRDHEEQLQRLKLLK [A4H]  3.73
27. LQRQSILDMRRDHEEQLQRLKLLK [A4Q]  3.7
28. QQRASILDMRRDHEEQLQRLKLLK [L1Q]  3.69
29. LQRDSILDMRRDHEEQLQRLKLLK [A4D]  3.64
30. NQRASILDMRRDHEEQLQRLKLLK [L1N]  3.64
31. KQRASILDMRRDHEEQLQRLKLLK [L1K]  3.64
32. LQRTSILDMRRDHEEQLQRLKLLK [A4T]  3.6
33. LQRAAILDMRRDHEEQLQRLKLLK [S5A]  3.59
34. LTRASILDMRRDHEEQLQRLKLLK [Q2T]  3.54
35. VQRASILDMRRDHEEQLQRLKLLK [L1V]  3.51
36. LQTASILDMRRDHEEQLQRLKLLK [R3T]  3.5
37. MQRASILDMRRDHEEQLQRLKLLK [L1M]  3.45
38. LERASILDMRRDHEEQLQRLKLLK [Q2E]  3.44
39. LQYASILDMRRDHEEQLQRLKLLK [R3Y]  3.4
40. LHRASILDMRRDHEEQLQRLKLLK [Q2H]  3.35
41. SQRASILDMRRDHEEQLQRLKLLK [L1S]  3.35
42. LQQASILDMRRDHEEQLQRLKLLK [R3Q]  3.33
43. HQRASILDMRRDHEEQLQRLKLLK [L1H]  3.33
44. RQRASILDMRRDHEEQLQRLKLLK [L1R]  3.3
45. LMRASILDMRRDHEEQLQRLKLLK [Q2M]  3.28
46. LARASILDMRRDHEEQLQRLKLLK [Q2A]  3.28
47. LRRASILDMRRDHEEQLQRLKLLK [Q2R]  3.27
48. WQRASILDMRRDHEEQLQRLKLLK [L1W]  3.22
49. LQRKSILDMRRDHEEQLQRLKLLK [A4K]  3.19
50. LQRMSILDMRRDHEEQLQRLKLLK [A4M]  3.19
51. FQRASILDMRRDHEEQLQRLKLLK [L1F]  3.19
52. LQRGSILDMRRDHEEQLQRLKLLK [A4G]  3.17
53. LQRAEILDMRRDHEEQLQRLKLLK [S5E]  3.15
54. LSRASILDMRRDHEEQLQRLKLLK [Q2S]  3.15
55. LQRLSILDMRRDHEEQLQRLKLLK [A4L]  3.13
56. LQRISILDMRRDHEEQLQRLKLLK [A4I]  3.13
57. CQRASILDMRRDHEEQLQRLKLLK [L1C]  3.11
58. LQMASILDMRRDHEEQLQRLKLLK [R3M]  3.02
59. LQCASILDMRRDHEEQLQRLKLLK [R3C]  3.02
60. LFRASILDMRRDHEEQLQRLKLLK [Q2F]  3
61. LQRACILDMRRDHEEQLQRLKLLK [S5C]  2.99
62. LQRCSILDMRRDHEEQLQRLKLLK [A4C]  2.97
63. LQRYSILDMRRDHEEQLQRLKLLK [A4Y]  2.96
64. LKRASILDMRRDHEEQLQRLKLLK [Q2K]  2.93
65. LQVASILDMRRDHEEQLQRLKLLK [R3V]  2.92
66. LQLASILDMRRDHEEQLQRLKLLK [R3L]  2.92
67. LQRFSILDMRRDHEEQLQRLKLLK [A4F]  2.9
68. LVRASILDMRRDHEEQLQRLKLLK [Q2V]  2.88
69. LQFASILDMRRDHEEQLQRLKLLK [R3F]  2.8
70. LYRASILDMRRDHEEQLQRLKLLK [Q2Y]  2.77
71. LQRSSILDMRRDHEEQLQRLKLLK [A4S]  2.67
72. LCRASILDMRRDHEEQLQRLKLLK [Q2C]  2.63
73. LQRVSILDMRRDHEEQLQRLKLLK [A4V]  2.57
74. LIRASILDMRRDHEEQLQRLKLLK [Q2I]  2.49
75. LWRASILDMRRDHEEQLQRLKLLK [Q2W]  2.4
76. YQRASILDMRRDHEEQLQRLKLLK [L1Y]  2.35
77. LQRAFILDMRRDHEEQLQRLKLLK [S5F]  2.3
78. LQRWSILDMRRDHEEQLQRLKLLK [A4W]  2.28
79. LLRASILDMRRDHEEQLQRLKLLK [Q2L]  2.25
80. LQIASILDMRRDHEEQLQRLKLLK [R3I]  2.23
81. LQWASILDMRRDHEEQLQRLKLLK [R3W]  1.9
